Results: PMC10149743, “Structural studies of the nucleus-like assembly of jumbo bacteriophage 201φ2-1” (Frontiers in Microbiology, 2023)

B1: gp105Δ(NTS 1–17) (domain or fragment, Pseudomonas phage 201phi2-1, UniProt B3FIW8 18-631, looked up)
chain: QAPAQQFTQAPQEKPMQSTQSQPTPSYAGTGGINSQFTRSGNVQGGDARASEALTVFTRLKEQAVAQQDLADDFSILRFDRDQHQVGWSSLVIAKQISLNGQPVIAVRPLILPNNSIELPKRKTNIVNGMQTDVIESDIDVGTVFSAQYFNRLSTYVQNTLGKPGAKVVLAGPFPIPADLVLKDSELQLRNLLIKSVNACDDILALHSGERPFTIAGLKGQQGETLAAKVDIRTQPLHDTVGNPIRADIVVTTQRVRRNGQQENEFYETDVKLNQVAMFTNLERTPQAQAQTLFPNQQQVATPAPWVASVVITDVRNADGIQANTPEMYWFALSNAFRSTHGHAWARPFLPMTGVAKDMKDIGALGWMSALRNRIDTKAANFDDAQFGQLMLSQVQPNPVFQIDLNRMGETAQMDSLQLDAAGGPNAQKAAATIIRQINNLGGGGFERFFDHTTQPILERTGQVIDLGNWFDGDEKRDRRDLDNLAALNAAEGNENEFWGFYGAQLNPNLHPDLRNRQSRNYDRQYLGSTVTYTGKAERCTYNAKFIEALDRYLAEAGLQITMDNTSVLNSGQRFMGNSVIGNNMVSGQAQVHSAYAGTQGFNTQYQTGPSSFY
notes: gp105 of Pseudomonas phage 201phi2-1, GenBank ABY62937, residues 1-17 removed; Truncation made by PCR and In-Fusion cloning into pET28a; source: E. coli BL21 (DE3) pLysS, purified using the same method as for the wild type gp105
B2: gp105Δ(NTS 1–17, CTS 609–631) (domain or fragment, Pseudomonas phage 201phi2-1, UniProt B3FIW8 18-608, looked up)
chain: QAPAQQFTQAPQEKPMQSTQSQPTPSYAGTGGINSQFTRSGNVQGGDARASEALTVFTRLKEQAVAQQDLADDFSILRFDRDQHQVGWSSLVIAKQISLNGQPVIAVRPLILPNNSIELPKRKTNIVNGMQTDVIESDIDVGTVFSAQYFNRLSTYVQNTLGKPGAKVVLAGPFPIPADLVLKDSELQLRNLLIKSVNACDDILALHSGERPFTIAGLKGQQGETLAAKVDIRTQPLHDTVGNPIRADIVVTTQRVRRNGQQENEFYETDVKLNQVAMFTNLERTPQAQAQTLFPNQQQVATPAPWVASVVITDVRNADGIQANTPEMYWFALSNAFRSTHGHAWARPFLPMTGVAKDMKDIGALGWMSALRNRIDTKAANFDDAQFGQLMLSQVQPNPVFQIDLNRMGETAQMDSLQLDAAGGPNAQKAAATIIRQINNLGGGGFERFFDHTTQPILERTGQVIDLGNWFDGDEKRDRRDLDNLAALNAAEGNENEFWGFYGAQLNPNLHPDLRNRQSRNYDRQYLGSTVTYTGKAERCTYNAKFIEALDRYLAEAGLQITMDNTSVLNSGQRFMGNSVIGNNMVSGQAQ
notes: gp105 of Pseudomonas phage 201phi2-1, GenBank ABY62937, residues 1-17 and 609-631 removed; Truncation made by PCR and In-Fusion cloning into pET28a; source: E. coli BL21 (DE3) pLysS, purified using the same method as for the wild type gp105
B3: gp105Δ(loop 279–285) (natural protein, Pseudomonas phage 201phi2-1, UniProt B3FIW8 1-631, looked up)
chain: MIRDTATNTTQTQAAPQQAPAQQFTQAPQEKPMQSTQSQPTPSYAGTGGINSQFTRSGNVQGGDARASEALTVFTRLKEQAVAQQDLADDFSILRFDRDQHQVGWSSLVIAKQISLNGQPVIAVRPLILPNNSIELPKRKTNIVNGMQTDVIESDIDVGTVFSAQYFNRLSTYVQNTLGKPGAKVVLAGPFPIPADLVLKDSELQLRNLLIKSVNACDDILALHSGERPFTIAGLKGQQGETLAAKVDIRTQPLHDTVGNPIRADIVVTTQRVRRNGQTDVKLNQVAMFTNLERTPQAQAQTLFPNQQQVATPAPWVASVVITDVRNADGIQANTPEMYWFALSNAFRSTHGHAWARPFLPMTGVAKDMKDIGALGWMSALRNRIDTKAANFDDAQFGQLMLSQVQPNPVFQIDLNRMGETAQMDSLQLDAAGGPNAQKAAATIIRQINNLGGGGFERFFDHTTQPILERTGQVIDLGNWFDGDEKRDRRDLDNLAALNAAEGNENEFWGFYGAQLNPNLHPDLRNRQSRNYDRQYLGSTVTYTGKAERCTYNAKFIEALDRYLAEAGLQITMDNTSVLNSGQRFMGNSVIGNNMVSGQAQVHSAYAGTQGFNTQYQTGPSSFY
notes: gp105 of Pseudomonas phage 201phi2-1, GenBank ABY62937, loop residues 279-285 deleted; source: E. coli BL21 (DE3) pLysS, purified using the same method as for the wild type gp105
B4: gp105Δ(NTS 1–60) (domain or fragment, Pseudomonas phage 201phi2-1, UniProt B3FIW8 61-631, looked up)
chain: QGGDARASEALTVFTRLKEQAVAQQDLADDFSILRFDRDQHQVGWSSLVIAKQISLNGQPVIAVRPLILPNNSIELPKRKTNIVNGMQTDVIESDIDVGTVFSAQYFNRLSTYVQNTLGKPGAKVVLAGPFPIPADLVLKDSELQLRNLLIKSVNACDDILALHSGERPFTIAGLKGQQGETLAAKVDIRTQPLHDTVGNPIRADIVVTTQRVRRNGQQENEFYETDVKLNQVAMFTNLERTPQAQAQTLFPNQQQVATPAPWVASVVITDVRNADGIQANTPEMYWFALSNAFRSTHGHAWARPFLPMTGVAKDMKDIGALGWMSALRNRIDTKAANFDDAQFGQLMLSQVQPNPVFQIDLNRMGETAQMDSLQLDAAGGPNAQKAAATIIRQINNLGGGGFERFFDHTTQPILERTGQVIDLGNWFDGDEKRDRRDLDNLAALNAAEGNENEFWGFYGAQLNPNLHPDLRNRQSRNYDRQYLGSTVTYTGKAERCTYNAKFIEALDRYLAEAGLQITMDNTSVLNSGQRFMGNSVIGNNMVSGQAQVHSAYAGTQGFNTQYQTGPSSFY
notes: gp105 of Pseudomonas phage 201phi2-1, GenBank ABY62937, residues 1-60 removed; Truncation made by PCR and In-Fusion cloning into pET28a; source: E. coli BL21 (DE3) pLysS, purified using the same method as for the wild type gp105
B5: nucleus-like shell protein gp105 of bacteriophage 201φ2-1, wild type, C-terminal His6 (natural protein, Pseudomonas phage 201phi2-1, UniProt B3FIW8 1-631, looked up)
chain: MIRDTATNTTQTQAAPQQAPAQQFTQAPQEKPMQSTQSQPTPSYAGTGGINSQFTRSGNVQGGDARASEALTVFTRLKEQAVAQQDLADDFSILRFDRDQHQVGWSSLVIAKQISLNGQPVIAVRPLILPNNSIELPKRKTNIVNGMQTDVIESDIDVGTVFSAQYFNRLSTYVQNTLGKPGAKVVLAGPFPIPADLVLKDSELQLRNLLIKSVNACDDILALHSGERPFTIAGLKGQQGETLAAKVDIRTQPLHDTVGNPIRADIVVTTQRVRRNGQQENEFYETDVKLNQVAMFTNLERTPQAQAQTLFPNQQQVATPAPWVASVVITDVRNADGIQANTPEMYWFALSNAFRSTHGHAWARPFLPMTGVAKDMKDIGALGWMSALRNRIDTKAANFDDAQFGQLMLSQVQPNPVFQIDLNRMGETAQMDSLQLDAAGGPNAQKAAATIIRQINNLGGGGFERFFDHTTQPILERTGQVIDLGNWFDGDEKRDRRDLDNLAALNAAEGNENEFWGFYGAQLNPNLHPDLRNRQSRNYDRQYLGSTVTYTGKAERCTYNAKFIEALDRYLAEAGLQITMDNTSVLNSGQRFMGNSVIGNNMVSGQAQVHSAYAGTQGFNTQYQTGPSSFY
notes: gp105 (nucleus-like shell protein, chimallin) of Pseudomonas phage 201phi2-1, GenBank ABY62937; 631 amino acids; synthesised codon-optimised gene in pET28a; residues 1-48 and 583-631 are named as present but not built in the model; Occurs as monomer, 24-mer cube-like particle and large sheet-like assemblies; also called NLSP; source: E. coli BL21 (DE3) pLysS, purified (cobalt resin, Superose 6 …)

Experiments:
[1] = target: the molecule itself; assay: SEC; truncation mutants of gp105, purified as the wild type, Superose 6 Increase 10/300 GL in buffer B (20 mM HEPES pH 7.5, 150 mM NaCl); self-association
[2] = target: the molecule itself; assay: cryo-EM structure; cube-like particles from the 11.4 ml SEC peak; reconstruction with O symmetry (4.76 Å) and without symmetry (6.41 Å)

Row | Protein | binding result [1] | stoichiometry N [2]
1 | B1 | binds | 
2 | B2 | binds | 
3 | B3 | binds | 
4 | B4 | binds | 
5 | B5 |  | 24
